Measured values: the supplement of paper PMC10567573

B1: PTPLAD1 (parent)
chain: YSFYMLTCIDMDWKVLTWLRYTLW

Variants of: B1
Experiment: protein stability index of a GFP-peptide fusion (GPS, HEK-293T) (PSI 1-6); higher = more stable
Conditions: c terminus: a fixed tail appended
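Note: lentivirally expressed fusions sorted by FACS into six bins by GFP to DsRed ratio, PSI derived from sequencing read proportions per bin multiplied by bin number.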

Row | Variant | protein stability index
1 | YSFYMLTCIDMDWKVLIWLRYTLW | 2.68
2 | YSFYMLTCIDMDWKVLDWLRYTLW | 2.45
3 | YSFYMLTCIDMDWKVLCWLRYTLW | 1.67
4 | YSFYMLTCIDMDWKVLFWLRYTLW | 3.31
5 | YSFYMLTCIDMDWKVLHWLRYTLW | 2.63
6 | YSFYMLTCIDMDWKVLQWLRYTLW | 2.82
7 | YSFYMLTCIDMDWKVLRWLRYTLW | 3.47
8 | YSFYMLTCIDMDWKVLVWLRYTLW | 2.23
9 | YSFYMLTCIDMDWKVLEWLRYTLW | 2.15
10 | YSFYMLTCIDIDWKVLTWLRYTLW | 2.67
11 | YSFYMLTCIDYDWKVLTWLRYTLW | 3.68
12 | YSFYMLTCIDLDWKVLTWLRYTLW | 3.18
13 | YSFYMLTCIDKDWKVLTWLRYTLW | 3.05
14 | YSFYMLTCIDVDWKVLTWLRYTLW | 2.87
15 | YSFYMLTCIDFDWKVLTWLRYTLW | 2.15
16 | YSFYMLTCIDCDWKVLTWLRYTLW | 3.43
17 | YSFYMLTCIDTDWKVLTWLRYTLW | 1.21
18 | YSFYMLTCIDPDWKVLTWLRYTLW | 2.49
19 | YSFYMLTCIDADWKVLTWLRYTLW | 3.31
20 | YSFYMLTCIDWDWKVLTWLRYTLW | 2.13
21 | YSFYMLTCIDEDWKVLTWLRYTLW | 2.15
22 | YSFYMLTCIDDDWKVLTWLRYTLW | 1.56
23 | YSFYMLTCIDHDWKVLTWLRYTLW | 1.6
24 | YSFYMLTCIDRDWKVLTWLRYTLW | 2.86

Row | Variant | protein stability index
25 | YSFYMLTCIDNDWKVLTWLRYTLW | 1.86
26 | YSFYFLTCIDMDWKVLTWLRYTLW | 3.81
27 | YSFYNLTCIDMDWKVLTWLRYTLW | 2.21
28 | YSFYGLTCIDMDWKVLTWLRYTLW | 2.15
29 | YSFYILTCIDMDWKVLTWLRYTLW | 3.07
30 | YSFYRLTCIDMDWKVLTWLRYTLW | 2.7
31 | YSFYPLTCIDMDWKVLTWLRYTLW | 2.17
32 | YSFYKLTCIDMDWKVLTWLRYTLW | 2.41
33 | YSFYQLTCIDMDWKVLTWLRYTLW | 2.64
34 | YSFYYLTCIDMDWKVLTWLRYTLW | 3.07
35 | YSFYDLTCIDMDWKVLTWLRYTLW | 2.49
36 | YSFYSLTCIDMDWKVLTWLRYTLW | 1.4
37 | YSFYVLTCIDMDWKVLTWLRYTLW | 2.62
38 | YSFYHLTCIDMDWKVLTWLRYTLW | 2.54
39 | YSFYMLTCIDMDWKLLTWLRYTLW | 1.89
40 | YSFYMLTCIDMDWKCLTWLRYTLW | 3.85
41 | YSFYMLTCIDMDWKILTWLRYTLW | 4.29
42 | YSFYMLTCIDMDWKQLTWLRYTLW | 2.69
43 | YSFYMLTCIDMDWKMLTWLRYTLW | 1.03
44 | YSFYMLTCIDMDWKKLTWLRYTLW | 3.92
45 | YSFYMLTCIDMDWKELTWLRYTLW | 1.86
46 | YSFYMLTCIDMDWKRLTWLRYTLW | 1.61
47 | YSFYMLTCIDMDWKTLTWLRYTLW | 2.91
48 | YSFYMLTCIDMDWKNLTWLRYTLW | 2.59

Row | Variant | protein stability index
49 | YSFYMLTCIDMDWKWLTWLRYTLW | 2.22
50 | YSFYMLTCIDMDWKYLTWLRYTLW | 3.09
51 | YSFYMLTCIDMNWKVLTWLRYTLW | 2.65
52 | YSFYMLTCIDMRWKVLTWLRYTLW | 2.18
53 | YSFYMLTCIDMVWKVLTWLRYTLW | 1.79
54 | YSFYMLTCIDMYWKVLTWLRYTLW | 1.95
55 | YSFYMLTCIDMFWKVLTWLRYTLW | 2.23
56 | YSFYMLTCIDMIWKVLTWLRYTLW | 1.82
57 | YSFYMLTCIDMGWKVLTWLRYTLW | 2.15
58 | YSFYMLTCIDMLWKVLTWLRYTLW | 2.09
59 | YSFYMLTCIDMPWKVLTWLRYTLW | 1.94
60 | YSFYMLTCIDMEWKVLTWLRYTLW | 2.68
61 | YSFYMLTCIDMKWKVLTWLRYTLW | 3.14
62 | YSFYMLTCIDMTWKVLTWLRYTLW | 1.91
63 | YSFYMLTCIDMAWKVLTWLRYTLW | 1.63
64 | YSFYMLTCIDMMWKVLTWLRYTLW | 1.51
65 | YSFYMLTCIDMCWKVLTWLRYTLW | 1.65
66 | YSFYMLTCIDMWWKVLTWLRYTLW | 1.82
67 | YSFYMLTCIDMHWKVLTWLRYTLW | 1.75
68 | YSFVMLTCIDMDWKVLTWLRYTLW | 2.36
69 | YSFNMLTCIDMDWKVLTWLRYTLW | 3.92
70 | YSFWMLTCIDMDWKVLTWLRYTLW | 2.12
71 | YSFSMLTCIDMDWKVLTWLRYTLW | 1.77
72 | YSFTMLTCIDMDWKVLTWLRYTLW | 1.86

Row | Variant | protein stability index
73 | YSFRMLTCIDMDWKVLTWLRYTLW | 2.28
74 | YSFMMLTCIDMDWKVLTWLRYTLW | 2.53
75 | YSFPMLTCIDMDWKVLTWLRYTLW | 2.72
76 | YSFQMLTCIDMDWKVLTWLRYTLW | 1.98
77 | YSFYMLTQIDMDWKVLTWLRYTLW | 3.01
78 | YSFYMLTHIDMDWKVLTWLRYTLW | 2.1
79 | YSFYMLTNIDMDWKVLTWLRYTLW | 2.97
80 | YSFYMLTTIDMDWKVLTWLRYTLW | 2.51
81 | YSFYMLTFIDMDWKVLTWLRYTLW | 2.48
82 | YSFYMLTEIDMDWKVLTWLRYTLW | 2.25
83 | YSFYMLTPIDMDWKVLTWLRYTLW | 1.7
84 | YSFYMLTRIDMDWKVLTWLRYTLW | 1.42
85 | YSFYMLTKIDMDWKVLTWLRYTLW | 3.09
86 | YSFYMLTIIDMDWKVLTWLRYTLW | 3.23
87 | YSFYMLTWIDMDWKVLTWLRYTLW | 2.54
88 | YSFYMLTGIDMDWKVLTWLRYTLW | 3.31
89 | YSFYMLTAIDMDWKVLTWLRYTLW | 2.9
90 | YSFYMLTSIDMDWKVLTWLRYTLW | 2.62
91 | YSFYMLTMIDMDWKVLTWLRYTLW | 1.73
92 | YSFYMLTDIDMDWKVLTWLRYTLW | 2
93 | YSFYMLTLIDMDWKVLTWLRYTLW | 2.85
94 | YSFYMLTCIDMDWAVLTWLRYTLW | 2.96
